Experimental data: patent publication US20060030020A1

Key:
[1] = molecular target: mouse monoclonal anti-β-gal antibody (Promega, Madison, Wis.); assay: affinity selection on wells coated with anti-β-gal antibody, collagenase elution, plaques counted on X-gal; input λβ-gal/λV′sac 10^3/10^10
[2] = molecular target: mouse monoclonal anti-β-gal antibody (Promega, Madison, Wis.); assay: affinity selection on wells coated with anti-β-gal antibody, collagenase elution, plaques counted on X-gal; input λβ-gal/λV′sac 10^3/10^6
[3] = molecular target: mouse monoclonal anti-β-gal antibody (Promega, Madison, Wis.); assay: affinity selection on wells coated with anti-β-gal antibody; input λβ-gal/λV′sac 10^3/10^9
[4] = molecular target: mouse monoclonal anti-β-gal antibody (Promega, Madison, Wis.); assay: affinity selection on wells coated with anti-β-gal antibody; input λβ-gal/λV′sac 10^3/10^8
[5] = molecular target: mouse monoclonal anti-β-gal antibody (Promega, Madison, Wis.); assay: affinity selection on wells coated with anti-β-gal antibody; input λβ-gal/λV′sac 10^3/10^7
[6] = molecular target: mouse monoclonal anti-β-gal antibody (Promega, Madison, Wis.); assay: affinity selection on wells coated with anti-β-gal antibody, collagenase elution, plaques counted on X-gal; input λβ-gal/λV′sac 10^3/10^8
[7] = molecular target: mouse monoclonal anti-β-gal antibody (Promega, Madison, Wis.); assay: single round of affinity selection on wells coated with anti-β-gal antibodies
[8] = molecular target: mouse monoclonal anti-β-gal antibody (Promega, Madison, Wis.); assay: affinity selection on wells coated with anti-β-gal antibody, collagenase elution, plaques counted on X-gal; input λβ-gal/λV′sac 10^4/10^7
[9] = molecular target: mouse monoclonal anti-β-gal antibody (Promega, Madison, Wis.); assay: affinity selection on wells coated with anti-β-gal antibody; input λβ-gal/λV′sac 10^3/10^10
[10] = molecular target: mouse monoclonal anti-β-gal antibody (Promega, Madison, Wis.); assay: affinity selection on wells coated with anti-β-gal antibody, collagenase elution, plaques counted on X-gal; input λβ-gal/λV′sac 10^4/10^9
[11] = molecular target: mouse monoclonal anti-β-gal antibody (Promega, Madison, Wis.); assay: affinity selection on wells coated with anti-β-gal antibody; input λβ-gal/λV′sac 10^4/10^10
[12] = molecular target: mouse monoclonal anti-β-gal antibody (Promega, Madison, Wis.); assay: affinity selection on wells coated with anti-β-gal antibody; input λβ-gal/λV′sac 10^4/10^8
[13] = molecular target: mouse monoclonal anti-β-gal antibody (Promega, Madison, Wis.); assay: affinity selection on wells coated with anti-β-gal antibody, collagenase elution, plaques counted on X-gal; input λβ-gal/λV′sac 10^3/10^7
[14] = molecular target: mouse monoclonal anti-β-gal antibody (Promega, Madison, Wis.); assay: affinity selection on wells coated with anti-β-gal antibody; input λβ-gal/λV′sac 10^4/10^9
[15] = molecular target: mouse monoclonal anti-β-gal antibody (Promega, Madison, Wis.); assay: affinity selection on wells coated with anti-β-gal antibody, collagenase elution, plaques counted on X-gal; input λβ-gal/λV′sac 10^4/10^8
[16] = molecular target: mouse monoclonal anti-β-gal antibody (Promega, Madison, Wis.); assay: affinity selection on wells coated with anti-β-gal antibody; input λβ-gal/λV′sac 10^3/10^6
[17] = molecular target: mouse monoclonal anti-β-gal antibody (Promega, Madison, Wis.); assay: affinity selection on wells coated with anti-β-gal antibody; input λβ-gal/λV′sac 10^4/10^7
[18] = molecular target: mouse monoclonal anti-β-gal antibody (Promega, Madison, Wis.); assay: affinity selection on wells coated with anti-β-gal antibody, collagenase elution, plaques counted on X-gal; input λβ-gal/λV′sac 10^3/10^9
[19] = molecular target: mouse monoclonal anti-β-gal antibody (Promega, Madison, Wis.); assay: affinity selection on wells coated with anti-β-gal antibody, collagenase elution, plaques counted on X-gal; input λβ-gal/λV′sac 10^4/10^10
[20] = molecular target: mucin of bovine submaxillary glands (Sigma, St. Louis, Mo.) (bovine); assay: affinity selection on wells coated with mucin, 1 mM CaCl2, collagenase elution

Question: Which Output Phage [1] does the source give for “λβ-gal phage particles grown on MC8 (su+), displaying the β-gal multimer (pV′-β-gal fusion protein assembled with β-gal monomers) on the phage tail (from UniProt P00722 10-1024)” here?
Answer: Its Output Phage is 5 plaques.

Question: And the Output Phage [2]?
Answer: The Output Phage was 8 plaques.

Question: What about the Enrichment (fold over λV′sac) [3] of the same molecule?
Answer: The Enrichment (fold over λV′sac) was 280000.

Question: What about the Enrichment (fold over λV′sac) [4] of the same molecule?
Answer: The Enrichment (fold over λV′sac) was 80000.

Question: And the Enrichment (fold over λV′sac) [5]?
Answer: The Enrichment (fold over λV′sac) was 2000.

Question: And the Output Phage [6]?
Answer: Its Output Phage is 8 plaques.

Question: What about the average efficiency of recovery (% of the input phage) [7] of the same molecule?
Answer: The average efficiency of recovery (% of the input phage) was 1.

Question: What about the Output Phage [8] of the same molecule?
Answer: Its Output Phage is 96 plaques.

Question: And the Enrichment (fold over λV′sac) [9]?
Answer: Its Enrichment (fold over λV′sac) is 530000.

Question: What about the Output Phage [10] of the same molecule?
Answer: Its Output Phage is 108 plaques.

Question: And the Enrichment (fold over λV′sac) [11]?
Answer: The Enrichment (fold over λV′sac) was 770000.

Question: What about the Enrichment (fold over λV′sac) [12] of the same molecule?
Answer: The Enrichment (fold over λV′sac) was 170000.

Question: And the Output Phage [13]?
Answer: The Output Phage was 10 plaques.

Question: And the Enrichment (fold over λV′sac) [14]?
Answer: The Enrichment (fold over λV′sac) was 300000.

Question: What about the Output Phage [15] of the same molecule?
Answer: The Output Phage was 168 plaques.

Question: And the Enrichment (fold over λV′sac) [16]?
Answer: The Enrichment (fold over λV′sac) was greater than 8000.

Question: And the Enrichment (fold over λV′sac) [17]?
Answer: Its Enrichment (fold over λV′sac) is 16000.

Question: And the Output Phage [18]?
Answer: The Output Phage was 99 plaques.

Question: And the Output Phage [19]?
Answer: Its Output Phage is 129 plaques.

B1: λV′sac phage particles grown on MC8 (su+), reference phage (protein)
chain: MPVPNPTMPVKGAGTTLWVYKGSGDPYANPLSDVDWSRLAKVKDLTPGELTAESYDDSYLDDEDADWTATGQGQKSAGDTSFTLAWMPGEQGQQALLAWFNEGDTRAYKIRFPNGTVDVFRGWVSSIGKAVTAKEVITRTVKVTNVGRPSMAEDRSTVTAATGMTVTPASTSVVKG
Question: Which Output Phage [1] does the source give for B1 here?
Answer: Its Output Phage is 106 plaques.

Question: And the Output Phage [2]?
Answer: The Output Phage was 0 plaques.

Question: And the Output Phage [6]?
Answer: The Output Phage was 11 plaques.

Question: What about the Output Phage [8] of the same molecule?
Answer: Its Output Phage is 6 plaques.

Question: And the Output Phage [10]?
Answer: The Output Phage was 39 plaques.

Question: And the Output Phage [13]?
Answer: Its Output Phage is 5 plaques.

Question: What about the Output Phage [15] of the same molecule?
Answer: The Output Phage was 25 plaques.

Question: What about the Output Phage [18] of the same molecule?
Answer: The Output Phage was 32 plaques.

Question: And the Output Phage [19]?
Answer: The Output Phage was 162 plaques.

B2: λBPA phage particles grown on MC8 (su+), displaying the BPA (Bauhinia purpurea lectin) multimer (pV′-BPA fusion protein assembled with BPA monomers) (protein, part only; not given: amber residue and junction residues, part only)
chain, part: MPVPNPTMPVKGAGTTLWVYKGSGDPYANPLSDVDWSRLAKVKDLTPGELTAESYDDSYLDDEDADWTATGQGQKSAGDTSFTLAWMPGEQGQQALLAWFNEGDTRAYKIRFPNGTVDVFRGWVSSIGKAVTAKEVITRTVKVTNVGRPSMAEDRSTVTAATGMTVTPASTSVVKGSWPVRPTPTPTTPTPTPTPTPTPTPTVGPIVTQETATSSTLTGFTFPNFWSNTQENGTEIIFLGNATYTPGALRLTRIGEDGIPLKSNAGQASYSRPVFLWDSTGHVASFYTSFSFIVRSIDVPHITADGFAFFLAPVDSSVKDYGGCLGLFRYKTATDPSKNQVVAVEFDTWPNTEWSDLRYPHIGINVNSTVSVATTRWDNDDAYVTKSTAHITYDATSKIITVLLTYDNGRHYQLSHVVDLPKILPERVRIGFSGGTGFNETQYILSWSFTSTLNSTKISALTQKLRSSASYSSM
chain: TSSTLTGFTFPNFWSNTQENGTEIIFLGNATYTPGALRLTRIGEDGIPLKSNAGQASYSRPVFLWDSTGHVASFYTSFSFIVRSIDVPHITADGFAFFLAPVDSSVKDYGGCLGLFRYKTATDPSKNQVVAVEFDTWPNTEWSDLRYPHIGINVNSTVSVATTRWDNDDAYVTKSTAHITYDATSKIITVLLTYDNGRHYQLSHVVDLPKILPERVRIGFSGGTGFNETQYILSWSFTSTLNSTKISALTQKLRSSASYSSM
Question: Which recovery of input phage (% of input phage) [20] does the source give for B2 here?
Answer: Its recovery of input phage (% of input phage) is 0.01.
